Patent publication US20170224836A1 (Novartis, published 2017)
Read-outs that look alike come from different tables or passages of the source.

Legend:
cynomolgus CDH6 on cells = target: T1, cynomolgus CDH6 on cells (cynomolgus, UniProt A0A2K5TW62 54-790); assay: FACS on CHO-cynoCDH6 cells
T1 sequence: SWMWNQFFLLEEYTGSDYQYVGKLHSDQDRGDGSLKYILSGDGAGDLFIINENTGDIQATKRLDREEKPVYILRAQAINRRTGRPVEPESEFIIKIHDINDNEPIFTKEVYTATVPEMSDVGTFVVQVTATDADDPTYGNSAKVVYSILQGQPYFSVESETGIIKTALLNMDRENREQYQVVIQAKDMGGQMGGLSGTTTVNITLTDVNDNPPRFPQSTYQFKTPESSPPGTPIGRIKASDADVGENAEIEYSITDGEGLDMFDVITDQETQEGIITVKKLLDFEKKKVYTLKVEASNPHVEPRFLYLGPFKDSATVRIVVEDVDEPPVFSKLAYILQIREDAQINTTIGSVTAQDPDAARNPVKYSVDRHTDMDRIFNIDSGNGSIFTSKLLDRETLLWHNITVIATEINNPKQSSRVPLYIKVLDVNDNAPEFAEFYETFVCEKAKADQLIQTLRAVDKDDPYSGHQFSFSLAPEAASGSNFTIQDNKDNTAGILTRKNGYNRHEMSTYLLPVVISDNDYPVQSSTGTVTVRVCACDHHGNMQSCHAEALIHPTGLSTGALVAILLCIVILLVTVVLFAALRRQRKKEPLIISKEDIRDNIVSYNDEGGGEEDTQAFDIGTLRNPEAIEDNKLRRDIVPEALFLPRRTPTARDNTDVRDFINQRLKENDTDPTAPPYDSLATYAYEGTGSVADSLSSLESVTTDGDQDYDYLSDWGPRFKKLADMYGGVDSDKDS

human CDH6 on cells = target: T2, human CDH6 on cells (human, UniProt P55285 54-790); assay: FACS on CHO-TO-humanCDH6 cells plus tetracycline
T2 sequence: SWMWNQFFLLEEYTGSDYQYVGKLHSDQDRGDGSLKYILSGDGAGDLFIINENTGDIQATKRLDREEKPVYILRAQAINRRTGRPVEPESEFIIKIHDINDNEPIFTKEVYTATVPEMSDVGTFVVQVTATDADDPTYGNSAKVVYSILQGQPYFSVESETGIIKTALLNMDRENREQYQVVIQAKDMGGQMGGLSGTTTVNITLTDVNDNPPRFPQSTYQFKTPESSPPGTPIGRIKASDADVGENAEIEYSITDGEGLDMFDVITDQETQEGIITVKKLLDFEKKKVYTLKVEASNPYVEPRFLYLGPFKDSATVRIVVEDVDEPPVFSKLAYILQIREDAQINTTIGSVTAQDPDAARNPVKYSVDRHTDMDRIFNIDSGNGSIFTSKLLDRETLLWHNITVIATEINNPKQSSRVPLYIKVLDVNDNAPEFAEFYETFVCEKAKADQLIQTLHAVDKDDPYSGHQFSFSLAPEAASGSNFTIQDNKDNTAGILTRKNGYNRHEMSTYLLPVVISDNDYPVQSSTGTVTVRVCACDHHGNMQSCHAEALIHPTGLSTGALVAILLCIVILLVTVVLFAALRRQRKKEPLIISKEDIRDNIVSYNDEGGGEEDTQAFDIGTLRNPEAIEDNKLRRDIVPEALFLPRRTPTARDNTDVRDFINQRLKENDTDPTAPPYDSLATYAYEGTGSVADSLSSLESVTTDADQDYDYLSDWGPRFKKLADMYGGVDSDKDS

hCDH6aa54-615 APPavi [1] = target: T3, hCDH6aa54-615 APPavi (human, UniProt P55285 54-615); assay: SPR binning
T3 sequence: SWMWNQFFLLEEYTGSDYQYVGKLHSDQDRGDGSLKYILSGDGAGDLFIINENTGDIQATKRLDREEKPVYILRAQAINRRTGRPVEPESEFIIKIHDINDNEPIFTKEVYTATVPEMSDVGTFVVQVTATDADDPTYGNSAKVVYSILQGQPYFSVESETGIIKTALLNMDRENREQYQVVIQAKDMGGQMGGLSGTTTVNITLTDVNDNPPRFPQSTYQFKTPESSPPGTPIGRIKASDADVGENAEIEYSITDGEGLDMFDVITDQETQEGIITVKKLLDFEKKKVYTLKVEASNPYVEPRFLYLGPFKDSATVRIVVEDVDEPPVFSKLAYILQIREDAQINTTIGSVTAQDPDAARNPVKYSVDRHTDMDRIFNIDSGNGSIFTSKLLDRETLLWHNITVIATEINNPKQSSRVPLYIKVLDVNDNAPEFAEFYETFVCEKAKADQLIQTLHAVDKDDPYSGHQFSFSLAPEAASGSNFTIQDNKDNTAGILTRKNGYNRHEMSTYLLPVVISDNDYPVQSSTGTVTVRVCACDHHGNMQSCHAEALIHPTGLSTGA

hCDH6aa54-615 APPavi [2] = target: T3, hCDH6aa54-615 APPavi; assay: SPR binning; remark: listed apart in the source
hCDH6aa54-615 APPavi [3] = target: T3, hCDH6aa54-615 APPavi; assay: SPR binning; remark: listed apart in the source
hCDH6aa54-615 APPavi [4] = target: T3, hCDH6aa54-615 APPavi; assay: SPR binning; remark: listed apart in the source

EC50 (read off the curve) (cynomolgus CDH6 on cells): ~1 nM
EC50 (read off the curve) (human CDH6 on cells): ~0.9 nM
response of secondary antibody on primary antibody-CDH6 complex (hCDH6aa54-615 APPavi [1]): 5.12
response of secondary antibody on primary antibody-CDH6 complex (hCDH6aa54-615 APPavi [2]): -1.82
response of secondary antibody on primary antibody-CDH6 complex (hCDH6aa54-615 APPavi [3]): 9.51
response of secondary antibody on primary antibody-CDH6 complex (hCDH6aa54-615 APPavi [4]): 6
B1: NOV0712 (antibody, human IgG1, kappa, V domains shown)
VH: QVQLLESGGGLVQPGGSLRLSCAASGFTFSSHGMHWVRQAPGKGLEWVSVISGSGSNTGYADSVKGRFTISRDNSKNTLYLQMNSLRAEDTAVYYCARQWGSYAFDSWGQGTLVTVSS
VL: DIQMTQSPSSLSASVGDRVTITCRASQSISSYLNWYQQKPGKAPKLLIYAVSTLQSGVPSRFSGSGSGTDFTLTISSLQPEDFATYYCQQSGTFPPTTFGQGTKVEIKR
